Data published in IntAct's records for PubMed 31515488.

B1: Tyrosine-protein phosphatase non-receptor type 9 (Homo sapiens), P43378 (parent)
chain: MEPATAPRPDMAPELTPEEEQATKQFLEEINKWTVQYNVSPLSWNVAVKFLMARKFDVLRAIELFHSYRETRRKEGIVKLKPHEEPLRSEILSGKFTILNVRDPTGASIALFTARLHHPHKSVQHVVLQALFYLLDRAVDSFETQRNGLVFIYDMCGSNYANFELDLGKKVLNLLKGAFPARLKKVLIVGAPIWFRVPYSIISLLLKDKVRERIQILKTSEVTQHLPRECLPENLGGYVKIDLATWNFQFLPQVNGHPDPFDEIILFSLPPALDWDSVHVPGPHAMTIQELVDYVNARQKQGIYEEYEDIRRENPVGTFHCSMSPGNLEKNRYGDVPCLDQTRVKLTKRSGHTQTDYINASFMDGYKQKNAYIGTQGPLENTYRDFWLMVWEQKVLVIVMTTRFEEGGRRKCGQYWPLEKDSRIRFGFLTVTNLGVENMNHYKKTTLEIHNTEERQKRQVTHFQFLSWPDYGVPSSAASLIDFLRVVRNQQSLAVSNMGARSKGQCPEPPIVVHCSAGIGRTGTFCSLDICLAQLEELGTLNVFQTVSRMRTQRAFSIQTPEQYYFCYKAILEFAEKEGMVSSGQNLLAVESQ
B2: Syntaxin-3 (Homo sapiens), Q13277 (parent)
chain: MKDRLEQLKAKQLTQDDDTDAVEIAIDNTAFMDEFFSEIEETRLNIDKISEHVEEAKKLYSIILSAPIPEPKTKDDLEQLTTEIKKRANNVRNKLKSMEKHIEEDEVRSSADLRIRKSQHSVLSRKFVEVMTKYNEAQVDFRERSKGRIQRQLEITGKKTTDEELEEMLESGNPAIFTSGIIDSQISKQALSEIEGRHKDIVRLESSIKELHDMFMDIAMLVENQGEMLDNIELNVMHTVDHVEKARDETKKAVKYQSQARKKLIIIIVLVVVLLGILALIIGLSVGLN
partner: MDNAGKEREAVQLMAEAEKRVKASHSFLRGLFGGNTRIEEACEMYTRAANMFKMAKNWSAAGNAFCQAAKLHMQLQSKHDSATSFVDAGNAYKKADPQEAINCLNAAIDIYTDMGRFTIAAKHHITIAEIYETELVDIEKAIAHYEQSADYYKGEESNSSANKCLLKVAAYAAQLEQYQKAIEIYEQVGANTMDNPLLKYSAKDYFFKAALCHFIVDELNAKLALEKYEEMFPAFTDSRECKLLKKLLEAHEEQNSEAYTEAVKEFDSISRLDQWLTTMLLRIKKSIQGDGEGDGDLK
B3: 5'-AMP-activated protein kinase subunit beta-2 (Homo sapiens), O43741 (parent)
chain: MGNTTSDRVSGERHGAKAARSEGAGGHAPGKEHKIMVGSTDDPSVFSLPDSKLPGDKEFVSWQQDLEDSVKPTQQARPTVIRWSEGGKEVFISGSFNNWSTKIPLIKSHNDFVAILDLPEGEHQYKFFVDGQWVHDPSEPVVTSQLGTINNLIHVKKSDFEVFDALKLDSMESSETSCRDLSSSPPGPYGQEMYAFRSEERFKSPPILPPHLLQVILNKDTNISCDPALLPEPNHVMLNHLYALSIKDSVMVLSATHRYKKKYVTTLLYKPI
B4: LIM/homeobox protein Lhx4 (Homo sapiens), Q969G2 (parent)
chain: MMQSATVPAEGAVKGLPEMLGVPMQQIPQCAGCNQHILDKFILKVLDRHWHSSCLKCADCQMQLADRCFSRAGSVYCKEDFFKRFGTKCTACQQGIPPTQVVRKAQDFVYHLHCFACIICNRQLATGDEFYLMEDGRLVCKEDYETAKQNDDSEAGAKRPRTTITAKQLETLKNAYKNSPKPARHVREQLSSETGLDMRVVQVWFQNRRAKEKRLKKDAGRHRWGQFYKSVKRSRGSSKQEKESSAEDCGVSDSELSFREDQILSELGHTNRIYGNVGDVTGGQLMNGSFSMDGTGQSYQDLRDGSPYGIPQSPSSISSLPSHAPLLNGLDYTVDSNLGIIAHAGQGVSQTLRAMAGGPTSDISTGSSVGYPDFPTSPGSWLDEMDHPPF
partner: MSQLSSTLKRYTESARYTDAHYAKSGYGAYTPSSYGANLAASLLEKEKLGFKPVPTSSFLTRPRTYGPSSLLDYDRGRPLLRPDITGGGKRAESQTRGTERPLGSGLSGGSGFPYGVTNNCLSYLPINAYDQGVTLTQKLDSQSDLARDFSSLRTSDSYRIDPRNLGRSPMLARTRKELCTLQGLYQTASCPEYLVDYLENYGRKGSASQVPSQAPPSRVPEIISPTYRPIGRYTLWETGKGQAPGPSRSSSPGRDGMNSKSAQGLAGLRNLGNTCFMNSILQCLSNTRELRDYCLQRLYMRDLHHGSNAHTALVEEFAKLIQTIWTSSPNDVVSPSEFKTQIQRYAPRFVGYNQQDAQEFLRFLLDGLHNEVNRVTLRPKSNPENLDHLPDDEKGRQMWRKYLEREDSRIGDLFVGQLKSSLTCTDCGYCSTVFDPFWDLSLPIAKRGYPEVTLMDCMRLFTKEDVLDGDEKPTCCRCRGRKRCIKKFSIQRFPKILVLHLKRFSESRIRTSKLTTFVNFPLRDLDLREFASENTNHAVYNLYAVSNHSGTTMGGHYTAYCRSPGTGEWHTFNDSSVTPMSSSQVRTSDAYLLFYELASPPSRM
B5: NADPH-dependent diflavin oxidoreductase 1 (Homo sapiens), Q9UHB4 (parent)
chain: MPSPQLLVLFGSQTGTAQDVSERLGREARRRRLGCRVQALDSYPVVNLINEPLVIFVCATTGQGDPPDNMKNFWRFIFRKNLPSTALCQMDFAVLGLGDSSYAKFNFVAKKLHRRLLQLGGSALLPVCLGDDQHELGPDAAVDPWLRDLWDRVLGLYPPPPGLTEIPPGVPLPSKFTLLFLQEAPSTGSEGQRVAHPGSQEPPSESKPFLAPMISNQRVTGPSHFQDVRLIEFDILGSGISFAAGDVVLIQPSNSAAHVQRFCQVLGLDPDQLFMLQPREPDVSSPTRLPQPCSMRHLVSHYLDIASVPRRSFFELLACLSLHELEREKLLEFSSAQGQEELFEYCNRPRRTILEVLCDFPHTAAAIPPDYLLDLIPVIRPRAFSIASSLLTHPSRLQILVAVVQFQTRLKEPRRGLCSSWLASLDPGQGPVRVPLWVRPGSLAFPETPDTPVIMVGPGTGVAPFRAAIQERVAQGQTGNFLFFGCRWRDQDFYWEAEWQELEKRDCLTLIPAFSREQEQKVYVQHRLRELGSLVWELLDRQGAYFYLAGNAKSMPADVSEALMSIFQEEGGLCSPDAAAYLARLQQTRRFQTETWA
partner: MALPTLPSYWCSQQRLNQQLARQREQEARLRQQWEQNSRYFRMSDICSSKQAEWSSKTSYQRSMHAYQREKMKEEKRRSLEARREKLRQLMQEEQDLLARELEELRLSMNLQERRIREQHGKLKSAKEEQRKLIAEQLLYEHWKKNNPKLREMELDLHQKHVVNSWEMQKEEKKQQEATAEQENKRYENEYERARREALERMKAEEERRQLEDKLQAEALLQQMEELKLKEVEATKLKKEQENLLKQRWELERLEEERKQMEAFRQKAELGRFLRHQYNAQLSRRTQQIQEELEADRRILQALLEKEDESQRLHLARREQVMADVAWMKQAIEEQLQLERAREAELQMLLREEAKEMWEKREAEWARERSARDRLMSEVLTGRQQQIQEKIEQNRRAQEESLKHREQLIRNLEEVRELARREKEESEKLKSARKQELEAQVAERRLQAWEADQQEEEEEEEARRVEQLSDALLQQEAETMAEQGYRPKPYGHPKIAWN
B6: Tuftelin-interacting protein 11 (Homo sapiens), Q9UBB9 (parent)
chain: MSLSHLYRDGEGRIDDDDDERENFEITDWDLQNEFNPNRQRHWQTKEEATYGVWAERDSDDERPSFGGKRARDYSAPVNFISAGLKKGAAEEAELEDSDDEEKPVKQDDFPKDFGPRKLKTGGNFKPSQKGFAGGTKSFMDFGSWERHTKGIGQKLLQKMGYVPGRGLGKNAQGIINPIEAKQRKGKGAVGAYGSERTTQSMQDFPVVDSEEEAEEEFQKELSQWRKDPSGSKKKPKYSYKTVEELKAKGRISKKLTAPQKELSQVKVIDMTGREQKVYYSYSQISHKHNVPDDGLPLQSQQLPQSGKEAKAPGFALPELEHNLQLLIDLTEQEIIQNDRQLQYERDMVVNLFHELEKMTEVLDHEERVISNLSKVLEMVEECERRMQPDCSNPLTLDECARIFETLQDKYYEEYRMSDRVDLAVAIVYPLMKEYFKEWDPLKDCTYGTEIISKWKSLLENDQLLSHGGQDLSADAFHRLIWEVWMPFVRNIVTQWQPRNCDPMVDFLDSWVHIIPVWILDNILDQLIFPKLQKEVENWNPLTDTVPIHSWIHPWLPLMQARLEPLYSPIRSKLSSALQKWHPSDSSAKLILQPWKDVFTPGSWEAFMVKNIVPKLGMCLGELVINPHQQHMDAFYWVIDWEGMISVSSLVGLLEKHFFPKWLQVLCSWLSNSPNYEEITKWYLGWKSMFSDQVLAHPSVKDKFNEALDIMNRAVSSNVGAYMQPGARENIAYLTHTERRKDFQYEAMQERREAENMAQRGIGVAASSVPMNFKDLIETKAEEHNIVFMPVIGKRHEGKQLYTFGRIVIYIDRGVVFVQGEKTWVPTSLQSLIDMAK
partner: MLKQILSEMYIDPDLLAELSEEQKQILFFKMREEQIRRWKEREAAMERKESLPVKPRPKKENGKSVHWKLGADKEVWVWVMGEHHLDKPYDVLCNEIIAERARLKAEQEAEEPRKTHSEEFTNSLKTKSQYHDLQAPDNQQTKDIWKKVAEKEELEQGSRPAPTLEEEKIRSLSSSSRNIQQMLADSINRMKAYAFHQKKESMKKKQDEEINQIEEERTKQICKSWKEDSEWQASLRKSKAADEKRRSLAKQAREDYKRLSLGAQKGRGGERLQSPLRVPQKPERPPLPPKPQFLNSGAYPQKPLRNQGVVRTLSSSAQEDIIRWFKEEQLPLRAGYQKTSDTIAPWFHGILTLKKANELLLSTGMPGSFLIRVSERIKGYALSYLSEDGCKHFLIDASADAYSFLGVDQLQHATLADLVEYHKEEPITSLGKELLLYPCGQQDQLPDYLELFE

Variants of: B1
Settings: with mal2_human MAL2, Q969L2
Chain of mal2_human MAL2, Q969L2 (Q969L2 whole entry): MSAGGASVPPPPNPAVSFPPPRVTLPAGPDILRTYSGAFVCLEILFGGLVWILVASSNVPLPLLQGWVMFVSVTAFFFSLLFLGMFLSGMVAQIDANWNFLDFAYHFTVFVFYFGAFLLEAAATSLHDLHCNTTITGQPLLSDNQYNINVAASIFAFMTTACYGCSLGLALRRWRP

Row | Variant | effect of a mutation on the interaction
1 | R72Q | disrupting interaction strength

Variants of: B1
Settings: with rtn3_human RTN3, O95197
Chain of rtn3_human RTN3, O95197 (O95197 whole entry): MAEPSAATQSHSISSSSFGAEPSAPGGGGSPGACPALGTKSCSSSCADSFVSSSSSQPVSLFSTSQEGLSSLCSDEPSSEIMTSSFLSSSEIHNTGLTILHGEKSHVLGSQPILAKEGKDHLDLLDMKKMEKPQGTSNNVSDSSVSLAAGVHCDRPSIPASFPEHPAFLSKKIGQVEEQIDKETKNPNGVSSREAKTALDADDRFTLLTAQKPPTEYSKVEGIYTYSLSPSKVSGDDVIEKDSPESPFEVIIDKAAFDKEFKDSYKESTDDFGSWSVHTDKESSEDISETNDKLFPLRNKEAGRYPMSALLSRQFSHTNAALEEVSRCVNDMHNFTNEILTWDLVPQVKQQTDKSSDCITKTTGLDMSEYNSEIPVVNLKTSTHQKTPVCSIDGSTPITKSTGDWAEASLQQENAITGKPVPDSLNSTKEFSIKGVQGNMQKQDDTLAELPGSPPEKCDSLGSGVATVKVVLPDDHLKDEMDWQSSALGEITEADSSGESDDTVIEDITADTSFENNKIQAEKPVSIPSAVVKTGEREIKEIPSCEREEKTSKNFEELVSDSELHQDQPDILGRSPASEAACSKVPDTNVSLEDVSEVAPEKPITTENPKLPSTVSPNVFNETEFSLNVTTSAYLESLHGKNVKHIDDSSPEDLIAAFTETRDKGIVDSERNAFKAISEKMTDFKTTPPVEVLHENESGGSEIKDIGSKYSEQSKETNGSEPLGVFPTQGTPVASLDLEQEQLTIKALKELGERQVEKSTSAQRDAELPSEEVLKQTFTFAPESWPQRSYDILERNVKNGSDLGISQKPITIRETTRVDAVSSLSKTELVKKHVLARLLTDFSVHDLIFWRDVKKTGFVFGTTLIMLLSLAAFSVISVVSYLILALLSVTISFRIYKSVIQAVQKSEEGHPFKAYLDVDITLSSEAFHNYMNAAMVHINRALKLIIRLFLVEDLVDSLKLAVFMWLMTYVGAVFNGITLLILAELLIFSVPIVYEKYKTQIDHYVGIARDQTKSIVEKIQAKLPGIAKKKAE

Row | Variant | effect of a mutation on the interaction
2 | R72Q | with no effect

Variants of: B1
Settings: with atrap_human AGTRAP

Row | Variant | effect of a mutation on the interaction
3 | R72Q | with no effect

Variants of: B2
Settings: with snab_human NAPB

Row | Variant | effect of a mutation on the interaction
4 | H198Y | with no effect
5 | G276S | with no effect

Variants of: B3
Settings: with oxda_human DAO

Row | Variant | effect of a mutation on the interaction
6 | G55E | with no effect

Variants of: B3
Settings: with mdfi_human MDFI

Row | Variant | effect of a mutation on the interaction
7 | G55E | with no effect

Variants of: B3
Settings: with crx_human CRX

Row | Variant | effect of a mutation on the interaction
8 | G55E | with no effect

Variants of: B3
Settings: with cdx4_human CDX4, O14627
Chain of cdx4_human CDX4, O14627 (O14627 whole entry): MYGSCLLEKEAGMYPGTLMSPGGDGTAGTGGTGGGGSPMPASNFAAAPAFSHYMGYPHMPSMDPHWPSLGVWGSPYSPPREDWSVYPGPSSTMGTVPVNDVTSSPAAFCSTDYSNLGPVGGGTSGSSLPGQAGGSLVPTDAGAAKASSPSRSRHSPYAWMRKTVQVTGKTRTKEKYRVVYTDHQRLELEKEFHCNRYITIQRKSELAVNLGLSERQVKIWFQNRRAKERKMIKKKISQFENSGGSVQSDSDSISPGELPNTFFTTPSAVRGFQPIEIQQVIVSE

Row | Variant | effect of a mutation on the interaction
9 | G55E | with no effect

Variants of: B4
Settings: with ubp2_human USP2, O75604

Row | Variant | effect of a mutation on the interaction
10 | N328S | with no effect

Variants of: B5
Settings: with tchp_human TCHP

Row | Variant | effect of a mutation on the interaction
11 | P281L | disrupting interaction strength

Variants of: B6
Settings: with sh24a_human SH2D4A

Row | Variant | effect of a mutation on the interaction
12 | S688L | with no effect
13 | R8Q | with no effect
